Measurements: patent US20240376208A1 (AFFIMED, published 2024)

T1: BCMA on MM.1S target cells (UniProt Q02223 1-184, limits assumed)
T1 sequence (looked up): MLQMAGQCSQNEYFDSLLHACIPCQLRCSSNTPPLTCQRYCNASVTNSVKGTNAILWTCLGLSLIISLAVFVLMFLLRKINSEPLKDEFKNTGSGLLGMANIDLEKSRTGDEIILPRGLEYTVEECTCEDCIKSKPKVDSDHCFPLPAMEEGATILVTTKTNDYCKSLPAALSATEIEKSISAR

B1: IgAb_51 (antibody, V domains shown)
VH: EVQLLESGGGLVQPGGSLRLSCAVSGFTFNSFAMSWVRQAPGKGLEWVSAISGSGGGTYYADSVKGRFTISRDNSKNTLYLQMNSLRAEDTAVYFCAKDKILWFGEPVFDYWGQGTLVTVSS
VL: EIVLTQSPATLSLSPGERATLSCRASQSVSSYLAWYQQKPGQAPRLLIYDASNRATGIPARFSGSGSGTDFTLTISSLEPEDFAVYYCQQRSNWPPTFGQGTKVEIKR
B2: Bi-scDb-Fc_01 (bispecific antibody, human IgG1)
chain: EVQLLESGGGLVQPGGSLRLSCAASGFTFSNYDMAWVRQAPGKGLEWVSSISTRGDITSYRDSVKGRFTISRDNSKNTLYLQMNSLRAEDTAVYYCARQDYYTDYMGFAYWGQGTLVTVSSGGGGSGGGGSGGGGSAIQMTQSPSSLSASVGDRVTITCRASEDIYNGLAWYQQKPGKAPKLLIYGASSLQDGVPSRFSGSGSGTEFTLTISSLQPEDEATYYCAGPHKYPLTFGGGTKVEIKEPKSCDKTHTCPPCPAPEFEGGPSVFLFPPKPKDTLMISRTPEVTCVVVAVSHEDPEVKFNWYVDGVEVHNAKTKPREEQYNSTYRVVSVLTVLHQDWLNGKEYKCKVSNKALPAPIEKTISKAKGQPREPQVYTLPPSREEMTKNQVSLTCLVKGFYPSDIAVEWESNGQPENNYKTTPPVLDSDGSFFLYSKLTVDKSRWQQGNVFSCSVMHEALHNHYTQKSLSLSPGGGGGSGGGGSSYVLTQPSSVSVAPGQTATISCGGHNIGSKNVHWYQQRPGQSPVLVIYQDNKRPSGIPERFSGSNSGNTATLTISGTQAMDEADYYCQVWDNYSVLFGGGTKLTVLGGSGGSQVQLVQSGAEVKKPGESLKVSCKASGYTFTSYYMHWVRQAPGQGLEWMGAIEPMYGSTSYAQKFQGRVTMTRDTSTSTVYMELSSLRSEDTAVYYCARGSAYYYDFADYWGQGTLVTVSSGGSGGSGGSGGSGGSGGSSYVLTQPSSVSVAPGQTATISCGGHNIGSKNVHWYQQRPGQSPVLVIYQDNKRPSGIPERFSGSNSGNTATLTISGTQAMDEADYYCQVWDNYSVLFGGGTKLTVLGGSGGSQVQLVQSGAEVKKPGESLKVSCKASGYTFTSYYMHWVRQAPGQGLEWMGAIEPMYGSTSYAQKFQGRVTMTRDTSTSTVYMELSSLRSEDTAVYYCARGSAYYYDFADYWGQGTLVTVSS
notes: Anti-BCMA scFv - silenced Fc - anti-CD16A scDb
B3: aBi-scDb-Fc_02 (bispecific antibody)
chain 1: DKTHTCPPCPAPEFEGGPSVFLFPPKPKDTLMISRTPEVTCVVVAVSHEDPEVKFNWYVDGVEVHNAKTKPREEQYNSTYRVVSVLTVLHQDWLNGKEYKCKVSNKALPAPIEKTISKAKGQPREPQVYTLPPSREEMTKNQVSLTCLVKGFYPSDIAVEWESNGQPENNYKTTPPVLDSDGSFFLTSKLTVDKSRWQQGNVFSCSVMHEALHNHYTQKSLSLSPGGGGGSGGGGSSYVLTQPSSVSVAPGQTATISCGGHNIGSKNVHWYQQRPGQSPVLVIYQDNKRPSGIPERFSGSNSGNTATLTISGTQAMDEADYYCQVWDNYSVLFGGGTKLTVLGGSGGSQVQLVQSGAEVKKPGESLKVSCKASGYTFTSYYMHWVRQAPGQGLEWMGAIEPMYGSTSYAQKFQGRVTMTRDTSTSTVYMELSSLRSEDTAVYYCARGSAYYYDFADYWGQGTLVTVSSGGSGGSGGSGGSGGSGGSSYVLTQPSSVSVAPGQTATISCGGHNIGSKNVHWYQQRPGQSPVLVIYQDNKRPSGIPERFSGSNSGNTATLTISGTQAMDEADYYCQVWDNYSVLFGGGTKLTVLGGSGGSQVQLVQSGAEVKKPGESLKVSCKASGYTFTSYYMHWVRQAPGQGLEWMGAIEPMYGSTSYAQKFQGRVTMTRDTSTSTVYMELSSLRSEDTAVYYCARGSAYYYDFADYWGQGTLVTVSSAAAGSHHHHHH
chain 2: EVQLLESGGGLVQPGGSLRLSCAASGFTFSNYDMAWVRQAPGKGLEWVSSISTRGDITSYRDSVKGRFTISRDNSKNTLYLQMNSLRAEDTAVYYCARQDYYTDYMGFAYWGQGTLVTVSSGGGGSGGGGSGGGGSAIQMTQSPSSLSASVGDRVTITCRASEDIYNGLAWYQQKPGKAPKLLIYGASSLQDGVPSRFSGSGSGTEFTLTISSLQPEDEATYYCAGPHKYPLTFGGGTKVEIKDKTHTCPPCPAPEFEGGPSVFLFPPKPKDTLMISRTPEVTCVVVAVSHEDPEVKFNWYVDGVEVHNAKTKPREEQYNSTYRVVSVLTVLHQDWLNGKEYKCKVSNKALPAPIEKTISKAKGQPREPQVYTLPPSREEMTKNQVSLYCLVKGFYPSDIAVEWESNGQPENNYKTTPPVLDSDGSFFLYSKLTVDKSRWQQGNVFSCSVMHEALHNHYTQKSLSLSPGGGGGSGGGGSSYVLTQPSSVSVAPGQTATISCGGHNIGSKNVHWYQQRPGQSPVLVIYQDNKRPSGIPERFSGSNSGNTATLTISGTQAMDEADYYCQVWDNYSVLFGGGTKLTVLGGSGGSQVQLVQSGAEVKKPGESLKVSCKASGYTFTSYYMHWVRQAPGQGLEWMGAIEPMYGSTSYAQKFQGRVTMTRDTSTSTVYMELSSLRSEDTAVYYCARGSAYYYDFADYWGQGTLVTVSSGGSGGSGGSGGSGGSGGSSYVLTQPSSVSVAPGQTATISCGGHNIGSKNVHWYQQRPGQSPVLVIYQDNKRPSGIPERFSGSNSGNTATLTISGTQAMDEADYYCQVWDNYSVLFGGGTKLTVLGGSGGSQVQLVQSGAEVKKPGESLKVSCKASGYTFTSYYMHWVRQAPGQGLEWMGAIEPMYGSTSYAQKFQGRVTMTRDTSTSTVYMELSSLRSEDTAVYYCARGSAYYYDFADYWGQGTLVTVSSAAAGSHHHHHH

Columns and labels:
[1] = target: CD38 on primary human NK cells (human, UniProt P28907 1-300); test: cell-based or functional assay
[2] = target: T2, biotinylated monomeric CD16A antigen (human, UniProt P08637 17-208, limits assumed, biotinylated (site not stated)); test: ELISA, biotinylated monomeric CD16A titrated on coated construct
T2 construct: Soluble antigen; also called soluble CD16A antigen
T2 sequence (P08637 17-208 limits assumed): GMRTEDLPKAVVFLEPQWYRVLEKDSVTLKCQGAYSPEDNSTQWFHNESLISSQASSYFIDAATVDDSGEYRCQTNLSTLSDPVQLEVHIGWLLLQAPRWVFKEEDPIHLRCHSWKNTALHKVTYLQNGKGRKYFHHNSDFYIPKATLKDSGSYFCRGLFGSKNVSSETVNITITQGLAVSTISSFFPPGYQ
Experimental: (§1) For the capturing approach, 96-well ELISA plates (Immuno Maxisorp, Nunc) were coated overnight at 4° C. with His-tagged human EGFR or BCMA extracellular domain at concentrations of 3.0 or 0.4 μg/mL, respectively. After blocking with 3% (w/v) skimmed milk powder dissolved in phosphate buffered saline (PBS), antigen coated plates were used for capturing of different multivalent bispecific engagers at concentrations of 3-5 μg/mL in PBS containing 0.3% (w/v) skimmed milk powder. After washing three times with 300 μL per well of PBS containing 0.1% (v/v) Tween 20, plates were incubated with serial dilutions of biotinylated dimeric or monomeric CD16A antigen in PBS containing 0.3% (w/v) skimmed milk powder for 1.5 h at room temperature. After washing, plates were incubated with the detection conjugate Streptavidin HRP, 1:10,000 diluted in PBS containing 0.3% (w/v) skimmed milk powder for 1 h followed by washing and incubation with tetramethylbenzidine substrate (Seramun) for 1-2 min. Reaction was stopped by addition of 0.5 M H₂SO₄ (100 μL/well). Absorbance was measured at 450 nm using a multiwell plate reader, plotted and EC₅₀ values were determined by fitting a nonlinear regression model to sigmoidal dose-response curves (four parameters logistic fit) using GraphPad Prism software.
(§2) Concentration dependent binding of antibody constructs to coated recombinant CD16A antigen, or of soluble monomeric or dimeric CD16 antigen variants to coated or target antigen captured antibody constructs was analyzed in ELISA. Half maximal binding concentrations (EC₅₀) were determined by fitting a nonlinear regression model to sigmoidal dose-response curves (four parameters logistic fit) using GraphPad Prism software.

[3] = target: T2, biotinylated monomeric CD16A antigen; test: ELISA, biotinylated monomeric CD16A titrated on construct captured by coated His-tagged human BCMA extracellular domain
Experimental: as §1, §2

[4] = target: T1, BCMA on MM.1S target cells; test: cell-based or functional assay
[5] = target: recombinant CD16A 158V fused to monomeric human Fc (human, UniProt P08637 17-208); test: ELISA, construct titrated on coated CD16A 158V fused to monomeric human Fc
Sequence of recombinant CD16A 158V fused to monomeric human Fc (P08637 17-208 F176V): as the sequence (P08637 17-208 limits assumed) above, with F160V counted along it

[6] = target: T3, recombinant CD16A 158F fused to monomeric human Fc (human, UniProt P08637 17-208); test: ELISA, construct titrated on coated CD16A 158F fused to monomeric human Fc
T3 construct: also called recombinant CD16 antigen variant; not shown: monomeric human Fc
T3 sequence (P08637 17-208): as the sequence (P08637 17-208 limits assumed) above
Experimental: To assess binding of EGFR/CD16 or BCMA/CD16 antibodies to coated antigen in ELISA, 96-well ELISA plates (Immuno Maxisorp, Nunc) were coated overnight at 4° C. with recombinant CD16 antigen variants fused to monomeric human Fc at a concentration of 1.5 μg/mL in 100 mM carbonate-bicarbonate buffer. After blocking with 3% (w/v) skimmed milk powder dissolved in phosphate buffered saline (PBS) serial dilutions of bispecific antibody constructs were incubated on the antigen coated plates for 1.5 h at room temperature. […] After washing, plates were incubated with tetramethylbenzidine substrate (Seramun) for 1-2 min. Reaction was stopped by addition of 0.5 M H₂SO₄ (100 μL/well). Absorbance was measured at 450 nm using a multiwell plate reader, plotted and EC₅₀ values were determined by fitting a nonlinear regression model to sigmoidal dose-response curves (four parameters logistic fit) using GraphPad Prism software.
as §2

[7] = target: T4, biotinylated dimeric CD16A antigen (human, UniProt P08637 17-208, limits assumed, biotinylated (site not stated)); test: ELISA, biotinylated dimeric CD16A titrated on coated construct
T4 construct: Soluble antigen; also called soluble CD16A antigen
T4 sequence (P08637 17-208 limits assumed): as above
Experimental: as §1, §2

[8] = target: T4, biotinylated dimeric CD16A antigen; test: ELISA, biotinylated dimeric CD16A titrated on construct captured by coated His-tagged human BCMA extracellular domain
Experimental: as §1, §2

Row | Binder | EC50 [pM], 4 h calcein-release NK cell fratricide assay, E:T 1:1 [1] [pM] | Emax [%], 4 h calcein-release NK cell fratricide assay, E:T 1:1 [1] [%] | EC50 [2] [nM] | EC50 [3] [nM] | EC50 [pM], 4 h calcein-release cytotoxicity on BCMA+ MM.1S target cells, NK cells E:T 5:1 [4] [pM] | Emax [%], 4 h calcein-release cytotoxicity on BCMA+ MM.1S target cells, NK cells E:T 5:1 [4] [%] | EC50 [5] [nM] | EC50 [6] [nM] | EC50 [7] [nM] | EC50 [8] [nM]
1 | B1 | 66.5 | 68.6 |  |  |  |  |  |  |  | 
2 | B2 |  |  | 3.4 | 1.72 | 1.1 | 51.2 | 0.17 | 0.24 | 1.14 | 0.64
3 | B3 |  |  | 3.84 | 2.36 | 2.3 | 62.8 | 0.34 | 0.45 | 1 | 1.25
